# In patent publication US20060199250A1, “Method for generating a mutant protein which efficiently binds a target molecule” (priority 2005, published 2006):
# What was measured:
# [1] = Mammalian cell transactivation (luciferase) of full-length hERα constructs in HEC-1 cells toward DHB; assay type: cell-based, human
# Experimental: Mammalian cell transactivation profiles for the wild-type hERα and the two best mutants, 4-S and 5-E, were carried out in estrogen receptor-negative human endometrial cancer (HEC-1) cells after cloning the hERα LBD from the chimeric yeast two-hybrid construct into the full-length estrogen receptor construct.
# Mammalian Transfection and Luciferase Assay. Methods used for cell culture, transfection, and performance of luciferase assay are known in the art (Muthyala, et al. (2003) J. Med. Chem. 46:1589-1602).
# [2] = Yeast two-hybrid ligand dose response assay (growth, OD600) of hERα LBD constructs toward DHB; assay type: cell-based; details: in yeast; DHB vs E2
# Experimental: Phenotypic screening of library variants was carried out based on a yeast two-hybrid system employing two constructs, the hERα LBD construct fused to the DNA binding domain of the yeast Gal4 transactivator, and the common mammalian transcriptional coactivator steroid receptor coactivator-1 (SRC-1) fused to the yeast Gal4 transcriptional activation domain. The hERα-SRC-1 interaction, which is elemental in the role of hERα as a transcriptional activator, is strengthened by the binding of agonist ligands to hERα. This system couples the strength of ligand-receptor interaction within host yeast cells to their growth on media lacking histidine and can be applied in either a selection or screening mode (Chen, et al. (2004) supra).
# The plasmids from promising mutants based on this ligand response assay were isolated and re-transformed into fresh yeast cells, and the ligand response assay was carried out again to eliminate possible false-positives.
# Plasmids, Strains, Reagents and Growth Media. […]
# Ligand Dose Response Assay. […] These microtiter plates were incubated at 30° C. for 24 hours, after which cultures were mixed by pipetting, and OD600 readings were taken using a SPECTRAMAX® 340PC plate reader (Molecular Devices, Sunnyvale, Calif.).
molecule,measurement,setting,value
"mutant 5-E: hERα mutant: Ala350Met, Leu346Ile, Met388Gln, Gly521Ser, Tyr526Asp, Phe461Leu, Val560Met (protein, UniProt P03372 1-595, looked up, variant A350M L346I M388Q G521S Y526D F461L V560M) Estrogen receptor: MTMTLHTKASGMALLHQIQGNELEPLNRPQLKIPLERPLGEVYLDSSKPAVYNYPEGAAYEFNAAAAANAQVYGQTGLPYGPGSEAAAFGSNGLGGFPPLNSVSPSPLMLLHPPPQLSPFLQPHGQQVPYYLENEPSGYTVREAGPPAFYRPNSDNRRQGGRERLASTNDKGSMAMESAKETRYCAVCNDYASGYHYGVWSCEGCKAFFKRSIQGHNDYMCPATNQCTIDKNRRKSCQACRLRKCYEVGMMKGGIRKDRRGGRMLKHKRQRDDGEGRGEVGSAGDMRAANLWPSPLMIKRSKKNSLALSLTADQMVSALLDAEPPILYSEYDPTRPFSEASMMGLITNLMDRELVHMINWAKRVPGFVDLTLHDQVHLLECAWLEILQIGLVWRSMEHPGKLLFAPNLLLDRNQGKCVEGMVEIFDMLLATSSRFRMMNLQGEEFVCLKSIILLNSGVYTLLSSTLKSLEEKDHIHRVLDKITDTLIHLMAKAGLTLQQQHQRLAQLLLILSHIRHMSNKSMEHLDSMKCKNVVPLYDLLLEMLDAHRLHAPTSRGGASMEETDQSHLATAGSTSSHSLQKYYITGEAEGFPATV",Selectivity,"[1]; HEC-1 cells, EC50 of E2 divided by EC50 of DHB",≧2.6 × 10^4
same,Fold Improvement,"[1]; HEC-1 cells, selectivity DHB vs E2 relative to wild-type hERα",≧1.4 × 10^8
same,selectivity enhancement relative to the fourth round mutant (4-S),"[1]; in mammalian cells, DHB vs E2",no selectivity enhancement
same,selectivity enhancement relative to the fourth round mutant (4-S),[2],no selectivity enhancement
